Target: T1, human Rab7 Q67L (residues 2–195), GTP-loaded (human, UniProt P51149 2-195, Q67L)
T1 construct: Supplemented with 1 mM GTP; Mg2+ and GTP are seen in the structure; also called Rab7A; Rab7-GTP; source: E. coli BL21(DE3), purified (Ni-NTA, thrombin cleavage, SEC; same procedure as the PDZD8 CC)
Test: ITC; 1 mM MBP-PDZD8 CC in the syringe injected (2 μl × 25) into 0.1 mM Rab7 in the cell; 20 °C; 20 mM Tris-HCl pH 7.5, 150 mM NaCl; Rab7 Q67L loaded with 1 mM GTP, Rab7 T22N with 1 mM GDP; two-site model for wild type, independent (single-site) model for mutants
Details: both partners purified

T1 sequence (P51149 2-195 Q67L): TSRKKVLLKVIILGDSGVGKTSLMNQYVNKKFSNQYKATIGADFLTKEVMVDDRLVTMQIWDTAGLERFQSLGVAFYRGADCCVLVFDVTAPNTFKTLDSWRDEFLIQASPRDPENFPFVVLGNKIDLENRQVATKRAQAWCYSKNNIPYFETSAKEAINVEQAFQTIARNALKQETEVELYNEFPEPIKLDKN

Row | binding result | Kd | Binder
1 | binds |  | MBP-PDZD8 CC, residues 980–1123 (domain or fragment, human, UniProt Q8NEN9 980-1123, looked up, source: purified recombinant protein; not shown: His tag, N-terminal, kept; MBP, N-terminal, kept) SDTEVCGPNSPSKRGNSTGIKLVRKEGGLDDSVFIAVKEIGRDLYRGLPTEERIQKLEFMLDKLQNEIDQELEHNNSLVREEKETTDTRKKSLLSAALAKSGERLQALTLLMIHYRAGIEDIETLESLSLDQHSKKISKYTDDT
2 |  | 0.66 µM | MBP-PDZD8 CC A1086R (domain or fragment, human, UniProt Q8NEN9 994-1123, looked up, also called PDZD8 A1086R; source: purified recombinant protein; not shown: His tag, N-terminal, kept; MBP, N-terminal, kept) GNSTGIKLVRKEGGLDDSVFIAVKEIGRDLYRGLPTEERIQKLEFMLDKLQNEIDQELEHNNSLVREEKETTDTRKKSLLSAALAKSGERLQRLTLLMIHYRAGIEDIETLESLSLDQHSKKISKYTDDT
3 |  | 9.2 µM | MBP-PDZD8 CC I1092E (domain or fragment, human, UniProt Q8NEN9 994-1123, looked up, also called PDZD8 I1092E; source: purified recombinant protein; not shown: His tag, N-terminal, kept; MBP, N-terminal, kept) GNSTGIKLVRKEGGLDDSVFIAVKEIGRDLYRGLPTEERIQKLEFMLDKLQNEIDQELEHNNSLVREEKETTDTRKKSLLSAALAKSGERLQALTLLMEHYRAGIEDIETLESLSLDQHSKKISKYTDDT
